Assay results taken from the supplement of paper PMC9170038.

Tested on: MS2 coat protein
Test: apparent KD of MS2 coat protein; designed switch direction (-1 OFF switch, 1 ON switch): -1; higher = weaker reporter binding
In short: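 The reported apparent KD is a per-design median over clusters, from curve fits of normalised cluster fluorescence. Protein titrations used SNAP-549-labelled MS2 coat protein, doubled from 0.7 or 1.5 nM to 3 µM, in Tris-HCl pH 7.5 buffer with KCl, MgCl2, BSA, DTT, tRNA and Tween-20, with no input, 200 uM small-molecule ligand, or an oligonucleotide input. The RNA switches were transcribed on Illumina chips by stalled E. coli RNA polymerase.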

[1] = input ligand: microRNA oligo, concentration not stated
[2] = Eterna round: R95, input ligand: microRNA oligo, concentration not stated

| Sequence | apparent KD of MS2 coat protein (input ligand: FMN 200 uM) [nM] | apparent KD of MS2 coat protein (input ligand: none) [nM] | apparent KD of MS2 coat protein [1] [nM] | also measured |
| --- | --- | --- | --- | --- |
| UUAAUGACUGUGAGGAUAUCGGAUAGAUAGAUAUUUGAGAAGGUACAUGAGGAUCACCCAUGUGUGAUUAGAGA [Brourd's EX4 #66] (Eterna round: R97, puzzle: Brourd's mod of Exclusion 4) | 246 | 253 | – | – |
| GCGUAGUAUGUAGGAUAUCGGUCAGUUUCUGAUCGAGAAGGACAUGAGGAUCACCCAUGUAAAACGUCCGGUUUCUGGAUACGC [JL ENG1 3.57] (Eterna round: R96, puzzle: Exclusion NG 1) | 27.5 | 23 | 16.3 | – |
| AGCAGACGAGGAUAUGAUAAUUAAUACAUGAGGAUCACCCAUGUAAUACUGAUCGAUAGAUCAGAAGGCGUCUGCU [E5/3-A2] (Eterna round: R97, puzzle: Exclusion 5) | 14.7 | 16.4 | – | – |
| UCGAUGCGAGGAUAUACUAAGGCAACUACUGCAGCUCAAAAACAUGAGGAUCACCCAUGUAGAAGGCGCAUAUA [JR_Exc002_Sub304] (Eterna round: R96, puzzle: Exclusion 2) | – | – | 12.9 | – |
| GAGCCAACAGGAUAUACAUGAGGAUCACCCAUGUGAAUUCGCUACACAGGGAUGAACAGUAGAAGGGUUGGUAU [Eternabot (Original) Solution 49] (Eterna round: R97, puzzle: Exclusion 3) | 165 | 229 | – | – |
| CUUGCGGAUAAAGGAUAUUGCGGUGACCGGCUCGGCGUACCGAGCCUACAUGAGGAUCACCCAUGUAAGAAGGUUGUCGCUGGU [JL ViennaUCT Qudice mod 3] (Eterna round: R96, puzzle: Exclusion NG 2) | 12.9 | 14.1 | 8.45 | – |
| CUGAUGUGAGGAUAUCUAAGGCGACCAUGAGACAUGGGCCAAGAGAAGGCACAUGAGGAUCACCCAUGUACCGA [Anertees] (Eterna round: R97, puzzle: Exclusion 4) | 83.8 | 22.2 | – | – |
| CCUUUGUCAGGAUAUCAGAACGCGCUCGUAGGGAGCGCGAAUGAGAAGGGACAUGAGGAUCACCCAUGUAAAGA [Soedes] (puzzle: Exclusion 4) | – | – | – | apparent KD of MS2 coat protein [2]: 74.3 nM |
| UAUAUAUAGUAAGGAUAUGUAUUAAUCUUAUAAACAGAAGGUACUGACAUGAGGAUCACCCAUGUUUUAGUGUGGGCAUGUAGA [JMF's solution 79] (Eterna round: R96, puzzle: Exclusion NG 1) | – | – | 54.8 | – |
| CUUUUGUGAGGAUAUCAGUAGUAAAAAUAUAAAAUUACUACUGAGAAGGCACAUGAGGAUCACCCAUGUUCCUC [salish99_ex4_r3_020] (puzzle: Exclusion 4) | – | – | – | apparent KD of MS2 coat protein [2]: 37.2 nM |
| UAAGCAAGUGAGCCGAUUCACAUGAGGAUCACCCAUGUAAGAGAGGAUAUUUGAUUGGAUCGAUUAGAGAAGGUUCUAAUGUGG [Eternabot solution 25] (Eterna round: R96, puzzle: Exclusion NG 3) | 87.2 | 37.2 | 28.9 | – |
| GUUCGACAUGAGGAUCACCCAUGUGAGGAUAUACGAUUAGCUGCUAGGUAGUUAGUAUGUAGAAGGUGCGUGUU [EX1 #70] (Eterna round: R97, puzzle: Exclusion 1) | 53.3 | 54.2 | – | – |
| UGCAGACGAGGAUAUAAAUGAUAUAACAUGAGGAUCACCCAUGUACGAUCGAAUGAUCGUUUAGAAGGCGUCUGCA [E5/11-A2] (Eterna round: R97, puzzle: Exclusion 5) | 18.5 | 17.4 | – | – |
| CUUCGUAUAGAGGAUAUAGGAUACUUCGGUGUCCUAGAAGGCUGUACAUGAGGAUCACCCAUGUACUUCAGAUC [Exclusion 6 - B - 14:b] (puzzle: Exclusion 6) | – | – | – | apparent KD of MS2 coat protein [2]: 11.9 nM |
| AGAGUGCUGCGAGGAUAUACAUGAGGAUCACCCAUGUGGAUCUGUGAGGCUUUGCCUCACAGGAUGUAGAAGGCGCAGUACUCA [Mat - Exclusion NG 2 - Mod of JL - D48] (Eterna round: R96, puzzle: Exclusion NG 2) | 178 | 25.4 | 18.2 | – |
| UGCGGGCUUUUGAGACCUCACAUGAGGAUCACCCAUGUGCUUGUCUUGUAAGUGGGUAGGUCGUUGGCUGACUCACA [Sensor-V1 #100] (Eterna round: R97, puzzle: Sensor, turn-off variant 1) | 18.8 | 17.5 | – | – |
| AACUGUCUAAAGGAUAUGCUGGAUUAAUAUCUGGCAGAAGGUUAGACAUGAGGAUCACCCAUGUAAAUACCACC [Omei Ex6 A10] (Eterna round: R97, puzzle: Exclusion 6) | 106 | 19.5 | – | – |
| GAUGUUUAAGGAUAUACAAUGAAUGUAUGCCACAUGGAAAUACAUGAGGAUCACCCAUGUAGAAGGUAAGGGAU [Eternabot (L2) Solution 37] (Eterna round: R97, puzzle: Exclusion 2) | 27.1 | 20.5 | – | – |
| AAAACACAUGAGGAUCACCCAUGUGAGGAUAUGUUAGUUUCGGCGAAAGCCGAAAUUAACAGAAGGCACAGAAA [JR_Exclusion1_Sub023] (puzzle: Exclusion 1) | – | – | – | apparent KD of MS2 coat protein (Eterna round: R95, input ligand: FMN 200 uM): 44.7 nM; apparent KD of MS2 coat protein [2]: 39.4 nM; apparent KD of MS2 coat protein (Eterna round: R95, input ligand: none): 40.1 nM |
| ACCUCACAUGAGGAUCACCCAUGUCAGGAUAUAAUUUCAAACAUCAAUCGCGGCGCUGAGAGAAGGGUCAAAAC (Eterna round: R97, puzzle: Exclusion 1) | 15.7 | 15.9 | – | – |
| UCCAGCAUACGGAGAUCCAACAUGAGGAUCACCCAUGUCUGGAAAGCUUUUUGCUUGUCUUAUCCUCCUCUGUGUGC [Design #6] (Eterna round: R97, puzzle: Sensor, turn-off variant 1) | 22.5 | 22.9 | – | – |
| UCAGGUCGGUAGGAUAUCGACGGGAAAAUCCCACGAGAAGGACUGACAUGAGGAUCACCCAUGUGAGCGUAACC [EX6 B.11] (Eterna round: R97, puzzle: Exclusion 6) | 149 | 202 | – | – |
| UAUAUAUAGUAAGGAUAUGUAUUCAUUUUAUAAACAGAAGGUACUGACAUGAGGAUCACCCAUGUUUUAGUGUGGGCAUGUAGA [JMF's solution 10] (Eterna round: R96, puzzle: Exclusion NG 1) | – | – | 64.1 | – |
| AAUGAGGGAGGAUAUACAUUCGGCUGUCAACAGCCCUUGGGACAUGAGGAUCACCCAUGUAGAAGGCCCGAUUA [EX2 B.20] (Eterna round: R97, puzzle: Exclusion 2) | 365 | 38.7 | – | – |
| UUAAUUCGGAUUCUUGAAAUACAUGAGGAUCACCCAUGUUCACAGGAUAUUGAUUAUGUUAGUAACAAGAAGGGUGUAACAUAU [JR_ExcNG3_Sub036] (Eterna round: R96, puzzle: Exclusion NG 3) | 87.1 | 28.7 | 31 | – |
| CACUUACAUGAGGAUCACCCAUGUGAGGAUAUCGUGACCUGACGAGAAGUCAAUGUCACGAGAAGGUACAUGGG [Exclusion 1 (Mod 1 solution 97 by Eternabot)] (Eterna round: R97, puzzle: Exclusion 1) | 59.3 | 68.2 | – | – |
